The values that follow come from paper PMC3439536.

The assay has as its target Human CR2 SCR1-4-BCCP, site-specifically biotinylated (human) (UniProt P20023). As to the kind of experiment: SPR.

Sequence of Human CR2 SCR1-4-BCCP, site-specifically biotinylated (human) (P20023 21-273): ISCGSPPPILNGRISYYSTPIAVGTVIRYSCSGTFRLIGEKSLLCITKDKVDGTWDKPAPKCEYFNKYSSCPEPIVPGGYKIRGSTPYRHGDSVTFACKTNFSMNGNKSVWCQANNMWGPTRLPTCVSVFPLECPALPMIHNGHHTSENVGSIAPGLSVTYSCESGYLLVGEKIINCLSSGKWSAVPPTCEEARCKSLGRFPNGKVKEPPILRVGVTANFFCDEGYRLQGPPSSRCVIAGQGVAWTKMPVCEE
Sequence of 70 kDa fragment of the Epstein-Barr virus gp350/220 coat protein (P03200 whole entry, the tested form may be a part): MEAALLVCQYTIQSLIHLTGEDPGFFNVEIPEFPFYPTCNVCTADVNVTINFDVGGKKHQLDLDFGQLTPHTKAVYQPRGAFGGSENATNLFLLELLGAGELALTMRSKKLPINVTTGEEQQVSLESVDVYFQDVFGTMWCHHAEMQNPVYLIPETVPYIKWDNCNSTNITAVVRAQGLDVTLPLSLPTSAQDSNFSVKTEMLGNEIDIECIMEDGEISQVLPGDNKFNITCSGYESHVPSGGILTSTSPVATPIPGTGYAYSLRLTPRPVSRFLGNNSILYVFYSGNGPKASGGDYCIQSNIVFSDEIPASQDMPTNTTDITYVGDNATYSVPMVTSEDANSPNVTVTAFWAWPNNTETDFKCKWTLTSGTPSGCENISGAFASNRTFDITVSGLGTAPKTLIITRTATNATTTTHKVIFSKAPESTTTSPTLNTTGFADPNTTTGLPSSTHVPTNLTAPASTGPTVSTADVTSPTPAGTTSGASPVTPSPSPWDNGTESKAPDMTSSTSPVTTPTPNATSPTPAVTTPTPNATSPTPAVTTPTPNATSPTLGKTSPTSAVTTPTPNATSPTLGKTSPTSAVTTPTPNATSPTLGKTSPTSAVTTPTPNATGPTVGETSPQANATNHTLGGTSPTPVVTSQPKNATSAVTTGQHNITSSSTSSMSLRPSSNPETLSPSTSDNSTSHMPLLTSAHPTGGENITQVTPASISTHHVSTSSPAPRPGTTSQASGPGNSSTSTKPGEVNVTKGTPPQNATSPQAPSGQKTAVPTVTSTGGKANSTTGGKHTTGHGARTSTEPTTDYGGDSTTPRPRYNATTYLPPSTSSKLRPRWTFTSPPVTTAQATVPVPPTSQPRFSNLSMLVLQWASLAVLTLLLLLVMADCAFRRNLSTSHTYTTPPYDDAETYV

In the case of “70 kDa fragment of the Epstein-Barr virus gp350/220 coat protein (from UniProt P03200-1 1-907) (domain or fragment)”, the KD1 (higher affinity site, two-site model) was 0.417 µM.
